Measured values taken from patent US20140193417A1 (LUDWIG INSTITUTE FOR CANCER RESEARCH, published 2014).

How the values were obtained:
[1] = target: T1, NaPi2b 317-340 array peptide Ac-PSTANCTSPSLCWTDGIQNWTMKN-amide (human, N-terminal acetyl (Ac-), C-terminal amide); experiment: synthetic peptide membrane array, 1 ug/ml antibody
T1 peptide: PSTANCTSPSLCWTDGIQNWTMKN
Experimental: (§1) For epitope mapping, membranes were incubated for 3 hours with 1 ug/ml primary antibody, followed by incubation with HRP-labeled goat anti-mouse polyclonal antibodies (Jackson ImmunoResearch Laboratories, West Grove, Pa.) for 2 hours. Bound antibody was visualized by chemiluminescence (Western Lightning Plus). For epitope mapping under reducing condition, membranes were incubated in 1 mM DTT for 1 hour at room temperature, and then washed extensively prior to antibody incubation.

[2] = target: T2, NaPi2b 312-340 array peptide with Ala at 328, Ac-INVTVPSTANCTSPSLAWTDGIQNWTMKN-amide (human, N-terminal acetyl (Ac-), C-terminal amide); experiment: synthetic peptide membrane array, 1 ug/ml antibody
T2 peptide: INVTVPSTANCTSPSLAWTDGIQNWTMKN
Experimental: as §1

[3] = target: T3, NaPi2b 312-340 array peptide with Ala at 322, Ac-INVTVPSTANATSPSLCWTDGIQNWTMKN-amide (human, N-terminal acetyl (Ac-), C-terminal amide); experiment: synthetic peptide membrane array, 1 ug/ml antibody
T3 peptide: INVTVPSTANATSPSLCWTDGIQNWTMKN
Experimental: as §1

[4] = target: T4, NaPi2b 323-340 array peptide Ac-TSPSLCWTDGIQNWTMKN-amide (human); experiment: synthetic peptide membrane array, 1 ug/ml antibody
T4 peptide: Ac-TSPSLCWTDGIQNWTMKN-NH2
Experimental: as §1

[5] = target: T5, NaPi2b 320-340 array peptide Ac-ANCTSPSLCWTDGIQNWTMKN-amide (human, N-terminal acetyl (Ac-), C-terminal amide); experiment: synthetic peptide membrane array, 1 ug/ml antibody
T5 peptide: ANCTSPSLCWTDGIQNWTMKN
Experimental: as §1

[6] = target: T6, NaPi2b 324-338 array peptide Ac-SPSLCWTDGIQNWTM-amide (human); experiment: synthetic peptide membrane array, 1 ug/ml antibody
T6 peptide: Ac-SPSLCWTDGIQNWTM-NH2
Experimental: as §1

[7] = target: T7, NaPi2b 312-340 array peptide with Ala at 322 and 328, Ac-INVTVPSTANATSPSLAWTDGIQNWTMKN-amide (human, N-terminal acetyl (Ac-), C-terminal amide); experiment: synthetic peptide membrane array, 1 ug/ml antibody
T7 peptide: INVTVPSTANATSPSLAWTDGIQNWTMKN
Experimental: as §1

[8] = target: T8, NaPi2b 312-340 array peptide Ac-INVTVPSTANCTSPSLCWTDGIQNWTMKN-amide (human, N-terminal acetyl (Ac-), C-terminal amide); experiment: synthetic peptide membrane array, 1 ug/ml antibody
T8 peptide: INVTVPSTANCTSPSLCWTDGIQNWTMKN
Experimental: as §1

[9] = target: T9, NaPi2b mutant T330V expressed in stably transfected HEK293 cells (pcDNA3.1/NaPi2b-T330V) (human, UniProt O95436 1-690); experiment: Western blot of lysates of stably transfected HEK293 cells
T9 construct: whole, on cells; Made by site-directed mutagenesis of pcDNA3.1/NaPi2b; also called mutant form T330V; not shown: EE-tag
T9 sequence (looked up): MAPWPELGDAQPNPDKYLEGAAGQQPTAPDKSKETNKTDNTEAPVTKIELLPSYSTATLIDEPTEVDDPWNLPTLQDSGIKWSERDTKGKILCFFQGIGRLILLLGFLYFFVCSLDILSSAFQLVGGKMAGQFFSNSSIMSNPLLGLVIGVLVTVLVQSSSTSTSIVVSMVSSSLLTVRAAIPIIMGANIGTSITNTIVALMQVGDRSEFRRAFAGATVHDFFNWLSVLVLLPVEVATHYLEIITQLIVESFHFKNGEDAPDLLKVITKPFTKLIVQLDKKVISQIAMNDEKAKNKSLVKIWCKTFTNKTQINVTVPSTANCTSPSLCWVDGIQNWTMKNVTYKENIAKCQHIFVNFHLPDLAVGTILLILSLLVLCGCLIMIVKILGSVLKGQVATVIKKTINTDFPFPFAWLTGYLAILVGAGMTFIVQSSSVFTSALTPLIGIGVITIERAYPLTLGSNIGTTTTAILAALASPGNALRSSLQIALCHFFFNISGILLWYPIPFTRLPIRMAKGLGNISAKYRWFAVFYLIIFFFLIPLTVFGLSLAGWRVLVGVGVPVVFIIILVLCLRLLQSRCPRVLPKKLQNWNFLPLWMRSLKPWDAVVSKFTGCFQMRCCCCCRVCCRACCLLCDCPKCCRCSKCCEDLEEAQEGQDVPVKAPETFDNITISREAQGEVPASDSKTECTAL
Experimental: Stably transfected HEK293 cells were lysed in buffer containing 10 mM Tris-HCl, pH 7.5, 150 mM NaCl, 10 mM MgCL₂, 0,5% NP-40, and a mixture of Halt Protease Inhibitor Cocktail (Pierce, USA). Protein concentration was measured by Bradford assay (Pierce, USA), and equal amounts of proteins (10 μg) were separated in 8% SDS-PAGE and blotted to polyvinylidene difluoride (PVDF) membrane (Millipore, USA). The membrane was blocked with 3% BSA in PBS (phosphate-saline buffer) containing 0.1% Tween-20 (PBST) for 1 h. Anti-NaPi2b and anti-EE-tag antibodies were incubated with membranes at 4° C. overnight. Generation of monoclonal antibodies against the extracellular loop of transporter was previously described. After washing with PBST, HRP-conjugated goat anti-mouse IgG 1:5000 (Promega, USA) was added to the membrane for 1 h at RT. Western blots were developed using the ECL system (Amersham, Sweden) and then exposed to Agfa X-ray film.
The expression of NaPi2b (wild type and mutant forms) in HEK293 was confirmed by Western blot analysis of total cell lysates with anti-EE monoclonal antibody (FIG. 22A) or anti-NaPi2b monoclonal antibodies (FIG. 22B).

[10] = target: T10, synthetic 29mer peptide representing amino acids 312-340 of the NaPi2b protein (human); experiment: peptide ELISA and dot blot
T10 construct: no end modifications stated
T10 peptide: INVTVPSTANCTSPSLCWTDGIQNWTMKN

binding result [1]: binds | binding result [2]: binds | binding result [3]: binds | binding result [4]: binds | binding result [5]: binds | binding result [6]: binds | binding result [7]: binds | binding result [8]: binds | binding result [9]: no binding | binding result [10]: binds
B1: Murine mAb MX35 (IgG1) (antibody, V domains shown)
VH: QVQLKQSGAELVKPGASVKMSCKASGYTFTGYNIHWVKQTPGQGLEWIGAIYPGNGDTSYKQKFRGKASLTADTSSSTVYMQLSSLTSEDSAVYYCARGETARATFAYWGQGTLVTVSA
VL: DIQMTQTTSSLPASLGDRVTISCSASQDIGNFLNWYQQKPDGTVKVLIYYTSSLYSGVPSRFSGSGSGTDYSLTISNLEPEDIATYYCQQYSKLPLTFGAGTKLELKR
notes: also called MX35 MAb; monoclonal antibody MX35
